According to the NTF2 design screens of Basanta et al. (2020):

Test: protease stability score; higher = more stable; yeast display proteolysis, trypsin and chymotrypsin;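 also: relative to predicted unfolded state with 0 unfolded-like and 1 meaning tenfold more protease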
With “DEEEELVLRIMHELLKLVLTGDFKRLSELLDPNVRMEIVVGDKHIEEHGRERMSHWILEWLRHARVKEFRIHHLIAYDGQTDSNVRLNVRIGDKEHRFRVIVILQVIDGKIRSLTIIFE” the protease stability score was 1.51. In the case of “NEEEKIIKKDIEKEITAWETGDFDTLDHLLDPHARMDINGKDLHGREVLKTHFHEEWNRLGLEKVEIHIQDFRVIDGRVHIDGYMNVNGRHQKVRFIARKVNGRWIIHEVEFR”, the protease stability score was 1.32. Sequence “TEEEETARHMVHEFYEVIKTGDEETFRKLLDPNTKLHVNGKERHGREAIDEMYHRFKNVRIHVEHVDVVDGKIDLRENWIQGDKETIVRIEAHKVDGRWELRSVHIH” has a protease stability score of 1.36. Sequence “DEDEHMRRIAYRLMWEVWHTGNFEELISLVDPHARVDIDGVELHGRENFTHELHERLRRMGVETQFRLRKVESYNGVVHIHTELEITIDGRNHKIDFIFYAHKINGRWRMKSEEYR” has a protease stability score of 1.8. Work on “EEEKETERIASEHHLEHLRTGDEETYLRNFDPHVRLDIDGREFHGWEFFRHFLRRMGFKHVRHIQIHHSELFNGRLFFDGTIRFRVGDKEDTFKVEVVDVKFNGRWHIQEFRVK” yielded a protease stability score of 1.43. “HEEEEEFKHVVKEVKEFSETGDWDVLNELMDPHVRLFVNGRLHHGREQISEFWHKVKNVTLIIRHIRPVGEKLEVDGEMKFDGKNIEARIHAQKIDGRWITREYRII” gave a protease stability score of 1.12. For “THEERLYREAMELEREVWETGDEHLIRDMVDPNVRFEINGVNTHGREEMARFVHEFGVDHIHIDHLQRINGRLEVRGKFQVGDKWVRTRFISTKINGRWFVESVHVR”, the protease stability score was 0.626. For “DEEERELKHFLKEFNRAWRTGDEDEIRHLLDPHVRILFNGVHVIGMEEIEKFWRHLRVRVTRITVHRVDLQGDKLRVDTEQDLVFLIGDFENKHTHHTVIFILKINGRWIIESIVIV”, the protease stability score was 1.45. For “DHEEKIWEEVLKELVHQFLTGDWKTRTQMADPEVRVESRVGDKFVRMHGREYLRMLMEFLHEQIKNATVTLHSFRVVDGRNEIKLRAEIGDKTHEIDMHYFVVDGRIKSLHVRTWEL”, the protease stability score was 1.05. With “EHEDELKHFIHELWKYASDTGDFRTELLLLDPNAKVQVGDKEYHGREWLEFELRRLGVDRIIKEIHIHHEHEQGDKLEIRGELHLLFNGKRIVIDVKLFFLKIDGKWFNRHIIIK” the protease stability score was 1.75. For “SEEEKESEDSMRILEHYFHTGNEESLLKLADPHVRSEINGKIHHGMDLHNEIWKHFVQQFKGARPTSLNFKDVEIQGNKAEFHIELVLTIGNYSIHLEMHIFNEKVDGRWLIRSTYIR”, the protease stability score was 1.08. “DESEELTKEAKRVYYETMRTGDEHNLKRLMDPNTRMDFNGVEFHGREAVKILVEQADHLEDVRIKRERVDEHEVELHGEFHGKVNGRHTTTHVILFWLKYNGRWRVKELQVR” showed a protease stability score of 0.84. “SEKEKLSKDLTRLLLEIIMTGDWKALSDNMDPEARQDIGDKHIVGREIISQFKMELDEEAGFKHSEIQRIRIIGDKIEMDVHVDQGDKHHTVHIIVIIVNGRIKHVEVRIR” showed a protease stability score of 2. In the case of “SEEEHHAKKIAEDFLRWFITGDEDVLSHYADPDVRSRIGDKHHHGREELRRVMERLVRELRIKEIRIERYEVQGEKAILDSRVRGDVNGVEVEVRQIVIVVVIDGRLKSMELRLG”, the protease stability score was 0.516. In the case of “DEVEKHLVHLTHRWIHSLLTGDEETISELLDPHARFNQGEWHHHGRELELRYWKEIRFKEMRISRYTAQGDKYHLDTELKGQVDGKEVRVRTHVHLVWVNGRAQSIYVEIH”, the protease stability score was 1.02. With “SELHEEIHKMVQEFLELFLTGDFHRIKQLMDPNVKLIYGDKLFHGRENVEKLHEELRWRYKNATIHVDLREITIFENRAVTDTSIEFDVNGKHISHETKVIIEKIDGQWVIKSIYIN” the protease stability score was 2.13. In the case of “DEHEEFAERNLKLLTELEETGNEDEIRKQADPHVRIEIGDKDIVGMHLWAKWVTHVKDRFDHIEVRLHRVHVQGDKILMHTQLILTQGNYRREFRTEVIIRKINGRWVLHSMHFH”, the protease stability score was 1.42. Work on “SEEERESEEFWKHLRDVTRTGDFDSLSKLVDPEVRLEWNGRHFIGREHLAELVIDMLNRIDHVELRLHSYRLQGNYLHLRTILIIRINGQQITHDTRITFIKVDGRWIIESKHVH” yielded a protease stability score of 0.869. Sequence “SEEEKEARRILTHFREVLHTGDEHALLELMDPNVRFILHDENHTVENHGMENMVTSLRKFGFDVIKRVHDKEHHLQGDKIKFHVETLGEINGREFEVEVQIRLYVVDGVLKWSEIIIH” has a protease stability score of 1.1. For “DERHETEERFLRTLIHSHMTGDEESHFEMMDPHAKLIYNGKEIHGMEVLRKELEEWRKKLGANHSHITIDHVELQGNKAHFDVTIDLIVDGRVIRTRIHIDIEKVDGRWIITRVIVK”, the protease stability score was 0.489. “DEDTKLVEEFLRDWLRALLTGDEEHLHKLLDPNTRVEINGQEFHGREMEVELMRHWRLDHIDIREIRITIIGNKVENHVRGRVDGEFDGRKINRETKLVNYVVKVNGRWLFHSMELRTH” gave a protease stability score of 1.35. Sequence “DEEERDSRIALEIWLHNVRTGDEKSERDNLDPHVRYIVDGRDYIGREDFLHMMSQIRIEEIRIKRFSSYNGRIHMDVHSRVTYNGVDRDIDENLHSTKYDGRWSIHYIEFR” has a protease stability score of 1.01. Sequence “DETKEYAKEMFEILKESLETGDWKKIRHLADPNVRLHIGEFEHHGWKEFIHFFREFLHHLRLEDVETKHIEVQGDKMILRTTLHLRQGDKSRDLDVIIIYRKIDGRWMLHSVEIR” has a protease stability score of 1.4. “SEEERDARIAIEIMLRLLHTGDEESMHQLADPDVRSDVGDKELHGWKLFVDVITEMGIDHVELEHLHTQGDKVHIHVRSFFNGREYLVNLHVRKVDGKWYVEEMKISHH” gave a protease stability score of 2.45. With “SEDEEMVEKAHQIEKESLETGDEKMILDLLDPNVRIRVDGVDFHGWEHAEKLLRELRIERVNLRSFTWQGDFLRLDGELTFDYNGKKIRTKVRIYADKVDGRWFHKSHEVT” the protease stability score was 1.1. Work on “SEEEEEMRFFMEVWIHDLRTGDFESLHKNADPRTRVEINGVELHGREHFTEWAERIKGAKFEVKDFKIQGDKVILHGKFSVNGVEHEMTVIFLKVNGRWLQESMTLK” yielded a protease stability score of 0.603. Sequence “HERERMLEVALRLFIETMRTGDEKITSELADPNVKIHIGDKTDHGRESFTNFFEEMGADHVNVHDVEVQGDKVKTDIRIQIGDKMVESILYVKKVNGRWLIRSIEIR” has a protease stability score of 1.05. “SEDEEQAERFARELIEVLRTGNEELLTHLLDPNTMLRVNGVEHHGREAYLHYTREMRYHHIDIEHFDVQGDKLYLHNRMDGQVDGRRVDVRIRIQVEKVNGRWKLRQERHQ” gave a protease stability score of 0.524. For “DERERDAEDALDELREIWRTGDWELIHQMLDPEVRLDINGVRLVGREHWVDEVRRLFHKVPGMTYHLKDVHFQGNKMHVDILSRYDGRESKVDLILLKINGKWLNKEVRIREE”, the protease stability score was 0.807. “SKREDKWKHHVEVLIRLWQTGDEDTLKELFDPNVLLLVIYNGRNIHNHGRELAMHWLRYLLEHLGIDHYHIESSSVIGDKVEIKSRVYIGDKTYELDLEIRIIDGRLKSLNVNIE” gave a protease stability score of 0.8. In the case of “DELEKVMHDMADLILHLYLTGDWETFLELADPNVKITIGDKEHHGWKSWKRLLEEELRRVDHIDSKLKRVIAIGDKAHVDGHMEINVNGREYRLDVHIIYVIVNGRHKEIEIHSE”, the protease stability score was 1.31. “DEREKREEEVLKIIIEITETGDWRIFMELADPHVKLDIGDKDMHGMEEAERLWELMHKLLGINHIRFRHLRIQGDKVDMEFNVTIGDKQVDTRRHVITVDGRLHEVHEEFK” showed a protease stability score of 0.399. Sequence “DKETKDSEKMSRMYFEYLLTGDFEKLLEMADPDVRFEFNGKEYIGMHETIEILERIWKDLGIKHSELKKVELQGEKAIIDGRIKYGDKEVNVKIILLVWNGKMREQRIHYQ” has a protease stability score of 1.1. For “SKEETWVKEAYELMTRTIRTGDERLMHELLDPHVRTVINGQESHGREVVLRFLEHIRYEEVTPTHIRIIGDWIDVDIRIHGHFDGRRYELRSTLFMRKVDGKWDLTEIRII”, the protease stability score was 0.709. Sequence “SDEEREFDIAFHLMRHVERTGDPHDMTKMADPNVRVDINGVEVVGREQLREEMRKLGVKYSHVEDFRTFDGRVILHGTLEINGQRRNTEIYASKINGRWHVEEYRFR” has a protease stability score of 1.14. “SEIDKHAEDVMRIWEHVHRTGNEDTLSHLLDPDVKVEIHYDGVDIRLHGMELVSEFLTRFAHHARNKDFKEKDLELQGNKIIRTGIVVFDYDGVEIRRWTHEEIRVVNGRFTHIKKEFH” showed a protease stability score of 0.442.
